Measurements: US20160168209A1

What was measured:
[1] = target: Gamma globulin (Nichiyaku), used as a human IgG (human); test: affinity chromatography, dynamic binding capacity at 5% breakthrough; ligand on HiTrap NHS agarose at 9.0 mg/mL-gel
[2] = target: human immunoglobulin G preparation separated from human plasma (Gammagard, Baxter) (human); test: SPR (Biacore 3000), human IgG on CM5 chip, as in Example 3
[3] = target: Gamma globulin (Nichiyaku), used as a human IgG (human); test: affinity chromatography, dynamic binding capacity at 5% breakthrough; ligand on HiTrap NHS agarose at 5.1 mg/mL-gel
[4] = target: Gamma globulin (Nichiyaku), used as a human IgG (human); test: affinity chromatography, dynamic binding capacity at 5% breakthrough; ligand on HiTrap NHS agarose at 8.8 mg/mL-gel
[5] = target: human immunoglobulin G preparation separated from human plasma (Gammagard, Baxter) (human); test: SPR (Biacore 3000), human IgG on CM5 chip, ligand flowed at 16-128 nM, 1:1 fit, 25 C
[6] = target: Gamma globulin (Nichiyaku), used as a human IgG (human); test: affinity chromatography, dynamic binding capacity at 5% breakthrough; ligand on HiTrap NHS agarose at 5.7 mg/mL-gel
[7] = target: Gamma globulin (Nichiyaku), used as a human IgG (human); test: affinity chromatography, dynamic binding capacity at 5% breakthrough; ligand on HiTrap NHS agarose at 10.9 mg/mL-gel
[8] = target: Gamma globulin (Nichiyaku), used as a human IgG (human); test: affinity chromatography, dynamic binding capacity at 5% breakthrough; ligand on cross-linked cellulose beads at 11.6 mg/mL-gel
[9] = target: Gamma globulin (Nichiyaku), used as a human IgG (human); test: affinity chromatography, dynamic binding capacity at 5% breakthrough; ligand on HiTrap NHS agarose at 6.8 mg/mL-gel
[10] = target: Gamma globulin (Nichiyaku), used as a human IgG (human); test: affinity chromatography, dynamic binding capacity at 5% breakthrough; ligand on HiTrap NHS agarose at 14.1 mg/mL-gel
[11] = target: Gamma globulin (Nichiyaku), used as a human IgG (human); test: affinity chromatography, dynamic binding capacity at 5% breakthrough; ligand on HiTrap NHS agarose at 6.4 mg/mL-gel
[12] = target: Gamma globulin (Nichiyaku), used as a human IgG (human); test: affinity chromatography, dynamic binding capacity at 5% breakthrough; ligand on HiTrap NHS agarose at 12.5 mg/mL-gel
[13] = target: Gamma globulin (Nichiyaku), used as a human IgG (human); test: affinity chromatography, dynamic binding capacity at 5% breakthrough; ligand on cross-linked cellulose beads at 11.0 mg/mL-gel
[14] = target: Gamma globulin (Nichiyaku), used as a human IgG (human); test: affinity chromatography, dynamic binding capacity at 5% breakthrough; ligand on HiTrap NHS agarose at 9.5 mg/mL-gel
[15] = target: Gamma globulin (Nichiyaku), used as a human IgG (human); test: affinity chromatography, dynamic binding capacity at 5% breakthrough; ligand on HiTrap NHS agarose at 4.8 mg/mL-gel
[16] = target: Gamma globulin (Nichiyaku), used as a human IgG (human); test: affinity chromatography, dynamic binding capacity at 5% breakthrough; ligand on HiTrap NHS agarose at 9.4 mg/mL-gel
[17] = target: Gamma globulin (Nichiyaku), used as a human IgG (human); test: affinity chromatography, dynamic binding capacity at 5% breakthrough; ligand on HiTrap NHS agarose at 6.9 mg/mL-gel
[18] = target: Gamma globulin (Nichiyaku), used as a human IgG (human); test: affinity chromatography, dynamic binding capacity at 5% breakthrough; ligand on HiTrap NHS agarose at 13.5 mg/mL-gel

C-K04R/K07R/G29A/S33L/K35R/K42R/K49R/K50R/(K58R except for C-terminal).3d (designed binder)
5% antibody dBC [1]: 66.2 mg/mL-gel | Ka [2]: 2.2e+09 M⁻¹ | 5% antibody dBC [3]: 49.1 mg/mL-gel

C-G29A/S33E.5d (designed binder)
5% antibody dBC [4]: 50.3 mg/mL-gel | Ka [5]: 6.3e+09 M⁻¹ | 5% antibody dBC [6]: 38.3 mg/mL-gel | 5% antibody dBC [7]: 54.4 mg/mL-gel | 5% antibody dBC [8]: 36.8 mg/mL-gel

C-K04R/K07R/G29A/S33R/K35R/K42R/K49Q/K50R.4d (designed binder)
Ka [5]: 1e+09 M⁻¹ | 5% antibody dBC [9]: 42.6 mg/mL-gel | 5% antibody dBC [10]: 62.1 mg/mL-gel

C-K04R/K07R/G29A/S33R/K35R/K42R/K49Q/K50R.5d (designed binder)
Ka [5]: 1.5e+09 M⁻¹ | 5% antibody dBC [11]: 45.8 mg/mL-gel | 5% antibody dBC [12]: 61.3 mg/mL-gel | 5% antibody dBC [13]: 46.1 mg/mL-gel | 5% antibody dBC [14]: 55.3 mg/mL-gel

C-K04R/K07R/G29A/S33L/K35R/K42R/K49R/K50R.3d (designed binder)
Ka [5]: 2.1e+09 M⁻¹ | 5% antibody dBC [15]: 56.5 mg/mL-gel | 5% antibody dBC [16]: 73.4 mg/mL-gel

C-K04R/K07R/G29A/S33R/K35R/K42R/K49Q/K50R(C-terminal K58R).4d (designed binder)
Ka [5]: 1.1e+09 M⁻¹ | 5% antibody dBC [17]: 41.8 mg/mL-gel | 5% antibody dBC [18]: 62.1 mg/mL-gel
